Laboratory results from patent publication US20200199244A1 (published 2020).
“And” between values parts separate entries of the source, which are not always exact repeats. Identical values can stand only once.

T1: human CD40 (H76R, W109L, L121P) Fc fusion (human)
T1 construct: Same construct as wt-hCD40 with H76R, W109L and L121P; also called hCD40-M5; hCD40-M5 (H76R, W109L, L121P); not shown: human IgG1 Fc
T1 chain: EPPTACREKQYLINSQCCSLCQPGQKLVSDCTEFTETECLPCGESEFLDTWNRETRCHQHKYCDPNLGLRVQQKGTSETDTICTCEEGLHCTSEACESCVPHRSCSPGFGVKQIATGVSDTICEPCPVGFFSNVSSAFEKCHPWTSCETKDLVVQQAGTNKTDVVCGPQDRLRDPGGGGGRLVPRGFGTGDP

T2: wild type cynomolgus monkey CD40 Fc fusion (cynomolgus monkey (Macaca …))
T2 construct: also called wt-cCD40; wt-cyno-CD40; not shown: human IgG1 Fc
T2 chain: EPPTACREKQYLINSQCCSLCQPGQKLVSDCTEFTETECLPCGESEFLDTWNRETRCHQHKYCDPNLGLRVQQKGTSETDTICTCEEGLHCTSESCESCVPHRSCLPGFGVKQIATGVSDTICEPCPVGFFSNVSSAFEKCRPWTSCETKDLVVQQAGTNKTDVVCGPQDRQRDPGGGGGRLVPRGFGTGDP


Tests used:
[1] = target: T3, wild type human CD40 Fc fusion (human, UniProt P25942 21-193); experiment: SPR, ProteOn XPR36; CD40-Fc captured, dAb analyte; 1:1 fit; repeat
T3 construct: also called wt-hCD40; not shown: human IgG1 Fc

[2] = target: T4, human CD40 (W109L) Fc fusion (human, UniProt P25942 21-193); experiment: SPR, ProteOn XPR36; CD40-Fc captured, dAb analyte; 1:1 fit;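 note: CD40-Fc captured on anti-human IgG(Fc) surface of a GLC chip, buffer pH 7.1, sensorgrams double-referenced against surfaces without CD40-Fc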
T4 construct: Same construct as wt-hCD40 with W109L; also called hCD40-M2; hCD40 M2 (W109L); not shown: human IgG1 Fc

[3] = target: T5, human CD40 (W109R) Fc fusion (Chimpanzee CD40) (human, UniProt P25942 21-193); experiment: as above
T5 construct: Same construct as wt-hCD40 with W109R (the residue of chimpanzee CD40); also called hCD40-M3; hCD40 M3 (W109R); not shown: human IgG1 Fc

[4] = target: T6, human CD40 (W109L, L121P) Fc fusion (human, UniProt P25942 21-193); experiment: as above
T6 construct: Same construct as wt-hCD40 with W109L and L121P; also called hCD40-M4; hCD40 M4 (W109L, L121P); not shown: human IgG1 Fc

[5] = target: T1, human CD40 (H76R, W109L, L121P) Fc …; experiment: as above
Protocol: (§1) Assays were performed on a BioRad ProteOn XPR36 SPR instrument. The SPR surfaces were prepared by immobilizing 8 μg/ml anti-human IgG(Fc) antibody (Biacore/GE Healthcare) in 10 mM sodium acetate pH 4.5 on a BioRad GLC sensor chip using standard ethyl(dimethylaminopropyl) carbodiimide (EDC)/N-hydroxysuccinimide (NHS) chemistry, with ethanolamine blocking. The running buffer for immobilization and kinetic binding analysis was 10 mM sodium phosphate, 130 mM sodium chloride, 0.05% tween 20, pH 7.1. CD40-Fc fusion proteins at concentrations of 20 μg/ml were captured in the vertical orientation on these surfaces via the Fc tail, and reference surfaces lacking CD40-Fc proteins were used for reference subtraction. […] The surfaces were regenerated in both horizontal and vertical orientations with 30 s pulses of 3 M MgCl₂ followed by running buffer at 60 μl/min. Sensogram data was double-referenced and then fitted to a 1:1 Langmuir model using BioRad ProteOn Manager V.2.1.0.38 software, to determine the association rate constant (ka), the dissociation rate constant (kd), and the equilibrium dissociation constant (KD).

[6] = target: T3, wild type human CD40 Fc fusion; experiment: as above
Protocol: as §1

[7] = target: T2, wild type cynomolgus monkey CD40 Fc …; experiment: as above
Protocol: as §1

[8] = target: T7, human CD40 (H76R) Fc fusion (human, UniProt P25942 21-193); experiment: as above
T7 construct: also called hCD40-M1; hCD40 M1 (H76R); not shown: human IgG1 Fc

human CD40 = human CD40 (human, UniProt P25942 21-277); experiment: cell-based or functional assay
cynomolgus serum albumin = target: T8, cynomolgus serum albumin (cynomolgus, UniProt A2V9Z4 25-608); experiment: SPR (BIAcore 3000), CSA amine-coupled on CM5 chip, ILF as analyte, 1:1 Langmuir fit, 25 C
T8 construct: Amine-coupled to a CM5 BIAcore chip; also called CSA; Cyno Serum Albumin
T8 sequence (A2V9Z4 25-608 limits assumed): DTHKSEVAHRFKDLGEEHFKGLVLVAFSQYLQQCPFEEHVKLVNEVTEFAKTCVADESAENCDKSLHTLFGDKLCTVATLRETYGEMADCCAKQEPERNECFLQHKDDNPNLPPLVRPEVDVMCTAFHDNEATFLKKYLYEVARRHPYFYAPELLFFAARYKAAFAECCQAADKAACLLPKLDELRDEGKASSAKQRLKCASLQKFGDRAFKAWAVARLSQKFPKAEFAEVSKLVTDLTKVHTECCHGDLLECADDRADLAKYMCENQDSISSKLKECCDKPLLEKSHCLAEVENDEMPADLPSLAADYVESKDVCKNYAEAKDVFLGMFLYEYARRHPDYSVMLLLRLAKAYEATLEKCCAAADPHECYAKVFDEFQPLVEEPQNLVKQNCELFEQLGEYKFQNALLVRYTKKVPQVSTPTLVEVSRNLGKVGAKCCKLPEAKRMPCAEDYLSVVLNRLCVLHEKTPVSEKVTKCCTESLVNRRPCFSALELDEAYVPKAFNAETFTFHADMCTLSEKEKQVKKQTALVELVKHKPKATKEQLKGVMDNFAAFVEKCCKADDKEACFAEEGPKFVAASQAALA
Description: (§2) A BIAcore™ 3000 instrument (GE Healthcare) was used to analyze the binding kinetics of anti-CD40-AlbudAb ILFs to human and cynomolgus serum albumin. Approximately 400 response units (RU) of human serum albumin (HSA) or cynomolgus serum albumin (CSA) were immobilized on a flow-cell of a CM5 BIAcore™ chip using an Amine Coupling Kit (GE Healthcare). A second flow cell without any ligand immobilized served as a reference flow-cell for inline referencing. An appropriate doubling dilution series of each dAb to be analyzed was prepared in HBS-EP buffer (0.01 M HEPES pH 7.4 with 0.15 M NaCl, 3 mM EDTA and 0.005% v/v Surfactant P20, GE Healthcare). Two hundred microlitres of each ILF were injected in duplicate using the instrument's KINJECT function. The injections were made across the serum albumin-immobilized and reference flow-cells in series, with inline subtraction of the signal from the reference cell. The experiment was performed at 25° C. and a flow rate of 40 μl/min of HBS-EP. After each injection had been completed, the dAb was allowed to dissociate from the ligand in buffer for 120 s before regeneration with a 10 μl injection of 10 mM glycine pH 2.0. A reference injection of HBS-EP buffer blank (containing no analyte) was also injected under the same conditions to serve as a second reference for subtraction from each analyte trace. BIAevaluation 4.1 software (GE Healthcare) was used to subtract both the reference flow-cell trace and the buffer blank trace from each analyte trace.
(§3) The same software was used to perform a simultaneous, global fit of a 1:1 (Langmuir) kinetic model to the association and dissociation phases of the analyte dilution series traces. This model yielded association and dissociation rate constants (kₐ and kd, respectively) and the equilibrium dissociation constant (KD) of the interaction.

human serum albumin = target: T9, human serum albumin (human, UniProt P02768 25-609); experiment: SPR (BIAcore 3000), HSA amine-coupled on CM5 chip, ILF as analyte, 1:1 Langmuir fit, 25 C
T9 construct: Amine-coupled to a CM5 BIAcore chip; also called HSA
T9 sequence (P02768 25-609 limits assumed): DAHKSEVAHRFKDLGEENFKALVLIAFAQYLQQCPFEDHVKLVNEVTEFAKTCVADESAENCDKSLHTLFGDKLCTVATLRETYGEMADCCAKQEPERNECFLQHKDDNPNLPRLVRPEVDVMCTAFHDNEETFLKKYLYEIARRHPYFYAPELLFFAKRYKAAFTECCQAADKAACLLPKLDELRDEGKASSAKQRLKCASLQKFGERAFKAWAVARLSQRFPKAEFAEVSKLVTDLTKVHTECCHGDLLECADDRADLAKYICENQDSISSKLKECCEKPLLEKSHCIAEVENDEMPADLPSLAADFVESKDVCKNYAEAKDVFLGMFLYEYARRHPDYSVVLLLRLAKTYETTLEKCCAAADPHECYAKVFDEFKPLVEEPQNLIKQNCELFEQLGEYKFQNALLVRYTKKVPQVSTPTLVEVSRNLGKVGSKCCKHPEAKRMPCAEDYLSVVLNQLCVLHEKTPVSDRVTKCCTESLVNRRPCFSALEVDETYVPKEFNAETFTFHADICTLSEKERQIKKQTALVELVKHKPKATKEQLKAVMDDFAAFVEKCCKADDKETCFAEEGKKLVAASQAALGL
Description: as §2, §3

Kd [1] [nM] | koff [1] [s⁻¹] | kon [1] [M⁻¹ s⁻¹] | Kd [2] [nM] | koff [2] [s⁻¹] | kon [2] [M⁻¹ s⁻¹] | Kd [3] [nM] | koff [3] [s⁻¹] | kon [3] [M⁻¹ s⁻¹] | Kd [4] [nM] | koff [4] [s⁻¹] | kon [4] [M⁻¹ s⁻¹] | Kd [5] [nM] | koff [5] [s⁻¹] | kon [5] [M⁻¹ s⁻¹] | Kd [6] [nM] | koff [6] [s⁻¹] | kon [6] [M⁻¹ s⁻¹] | Kd [7] [nM] | koff [7] [s⁻¹] | Binder | also measured
0.26 | 0.000847 | 3.3e+06 | 0.41 | 0.00167 | 4.06e+06 | 0.27 | 0.00104 | 3.78e+06 | 0.35 | 0.00152 | 4.39e+06 | 0.47 | 0.0017 | 3.65e+06 | 0.22 | 0.000991 | 4.47e+06 | 0.43 | 0.00147 | BMS3h-217-16 (other, Anti-human CD40 domain antibody (dAb), single V kappa domain) VL: DIQMTQSPSSLSASVGDRVTITCRASHFIGTLLSWYQQKPRKAPKLLITYGSLLQSGVPSRFSGSGSGTDFTLTISSLQPEDFATYYCGQGVLWPPTFGQGTKVEIKR | kon [7]: 3.44e+06 M⁻¹ s⁻¹; Kd [8]: 0.35 nM; koff [8]: 0.00168 s⁻¹; kon [8]: 4.83e+06 M⁻¹ s⁻¹
0.48 | 0.000981 | 2.03e+06 | 0.99 | 0.00251 | 2.55e+06 | 0.72 | 0.00196 | 2.73e+06 | 0.93 | 0.00259 | 2.78e+06 | 0.99 | 0.00242 | 2.44e+06 | 0.47 | 0.00127 | 2.71e+06 | 0.86 | 0.00212 | BMS3h-217-5 (other, Anti-human CD40 domain antibody (dAb), single V kappa domain) VL: DIQMTQSPSFLSASVGDRVTITCRASHFIATLLSWYQQKPGKAPKLLITYGSLLQSGVPSRFSGSGSGTDFTLTISSLQPEDFATYYCGQGVLWPPTFGQGTKVEIKR | kon [7]: 2.46e+06 M⁻¹ s⁻¹; Kd [8]: 0.94 nM; koff [8]: 0.00299 s⁻¹; kon [8]: 3.17e+06 M⁻¹ s⁻¹
1.52 | 0.00163 | 1.07e+06 | 1.95 | 0.00291 | 1.49e+06 | 1.22 | 0.00186 | 1.53e+06 | 1.61 | 0.00268 | 1.67e+06 | 2.21 | 0.00287 | 1.3e+06 | 0.78 | 0.00127 | 1.64e+06 | 1.9 | 0.00235 | BMS3h-217-23 (other, Anti-human CD40 domain antibody (dAb), single V kappa domain) VL: DIQMTQSPSSLSASVGDRVTITCRASHFIGSLLSWYQVKPGKAPKLLITYGSLLQSGVPSRFSGSGSGTDFTLTISSLQPEDFATYYCGQGVLWPATFGQGTTVEIKR | kon [7]: 1.24e+06 M⁻¹ s⁻¹; Kd [8]: 1.59 nM; koff [8]: 0.00262 s⁻¹; kon [8]: 1.64e+06 M⁻¹ s⁻¹
 |  |  |  |  |  |  |  |  |  |  |  |  |  |  |  |  |  |  |  | DMS0662 DOM7h-11-90-TVAAPS-BMS3h-56-201 (bispecific antibody, AlbudAb inline fusion (ILF): an anti-CD40 dAb and an anti-serum-albumin dAb joined by a linker in one polypeptide) DIQMTQSPSSLSASVGDRVTITCRASRPIGTMLSWYQQKPGKAPKLLILAFSRLQSGVPSRFSGSGSGTDFTLTISNLQPEDFATYYCAQAGTHPTTFGQGTKVEIKRTVAAPSEVQLLESGGGLVQPGGSLRLSCAASGFTFRDYEMWWVRQAPGKGLERVSAINPQGTRTYYADSVKGRFTISRDNSKNTLYLQMNSLRAEDTAVYYCAKLPFYFQEWGQGTLVTVSS | ICAM-1 Cell Assay EC50 (nM), 10% bovine serum (human CD40): 33.5 nM; ICAM-1 Cell Assay EC50 (nM), 10% human serum (human CD40): > 1000 nM; Kd (cynomolgus serum albumin): 2.5 nM and 2.42 nM; koff (cynomolgus serum albumin): 0.00252 s⁻¹ and 0.00266 s⁻¹; kon (cynomolgus serum albumin): 1.01e+06 M⁻¹ s⁻¹ and 1.1e+06 M⁻¹ s⁻¹; Kd (human serum albumin): 1.21 nM and 1.23 nM; koff (human serum albumin): 0.00133 s⁻¹ and 0.00147 s⁻¹; kon (human serum albumin): 1.1e+06 M⁻¹ s⁻¹ and 1.19e+06 M⁻¹ s⁻¹
 |  |  |  |  |  |  |  |  |  |  |  |  |  |  |  |  |  |  |  | DMS0664 DOM7h-11-69-TVAAPS-BMS3h-56-201 (bispecific antibody, AlbudAb inline fusion (ILF): an anti-CD40 dAb and an anti-serum-albumin dAb joined by a linker in one polypeptide) DIQMTQSPSSLSASVGDRVTITCRASRPIGTMLSWYQQKPGKAPKLLILAFSRLQSGVPSRFSGSGSGTDFTLTISSLQPEDFATYYCAQAGVHPTTFGQGTKVEIKRTVAAPSEVQLLESGGGLVQPGGSLRLSCAASGFTFRDYEMWWVRQAPGKGLERVSAINPQGTRTYYADSVKGRFTISRDNSKNTLYLQMNSLRAEDTAVYYCAKLPFYFQEWGQGTLVTVSS | ICAM-1 Cell Assay EC50 (nM), 10% bovine serum (human CD40): 16.5 nM; ICAM-1 Cell Assay EC50 (nM), 10% human serum (human CD40): > 1000 nM; Kd (cynomolgus serum albumin): 1.09 nM and 2.97 nM; koff (cynomolgus serum albumin): 0.00273 s⁻¹ and 0.00272 s⁻¹; kon (cynomolgus serum albumin): 2.51e+06 M⁻¹ s⁻¹ and 920000 M⁻¹ s⁻¹; Kd (human serum albumin): 0.57 nM and 1.59 nM; koff (human serum albumin): 0.00142 s⁻¹ and 0.00149 s⁻¹; kon (human serum albumin): 2.5e+06 M⁻¹ s⁻¹ and 930000 M⁻¹ s⁻¹
 |  |  |  |  |  |  |  |  |  |  |  |  |  |  |  |  |  |  |  | DMS0663 DOM7h-11-86-TVAAPS-BMS3h-56-201 (bispecific antibody, AlbudAb inline fusion (ILF): an anti-CD40 dAb and an anti-serum-albumin dAb joined by a linker in one polypeptide) DIQMTQSPSSLSASVGDRVTITCRASRPIGTMLSWYQQKPGKAPKLLILAFSRLQSGVPSRFSGSGSGTDFTLTISSLQPEDVATYYCAQAGTHPTTFGQGTKVEIKRTVAAPSEVQLLESGGGLVQPGGSLRLSCAASGFTFRDYEMWWVRQAPGKGLERVSAINPQGTRTYYADSVKGRFTISRDNSKNTLYLQMNSLRAEDTAVYYCAKLPFYFQEWGQGTLVTVSS | ICAM-1 Cell Assay EC50 (nM), 10% bovine serum (human CD40): 21.4 nM; ICAM-1 Cell Assay EC50 (nM), 10% human serum (human CD40): > 1000 nM; Kd (cynomolgus serum albumin): 2.38 nM and 2.52 nM; koff (cynomolgus serum albumin): 0.00281 s⁻¹ and 0.00296 s⁻¹; kon (cynomolgus serum albumin): 1.18e+06 M⁻¹ s⁻¹; Kd (human serum albumin): 1.12 nM and 1.21 nM; koff (human serum albumin): 0.0014 s⁻¹ and 0.0016 s⁻¹; kon (human serum albumin): 1.25e+06 M⁻¹ s⁻¹ and 1.32e+06 M⁻¹ s⁻¹
